± gives the uncertainty stated by the source.

This is an account of results in the supplement of paper PMC12042874.

The series in a line: amyloid nucleation score (Sup35N fusion, yeast selection) (log enrichment); library NNK1; higher = more nucleation; inactive = no reads after selection. The essentials:
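Three technical output replicates were used for random libraries. Psi-negative yeast expressing peptides of 20 random codons fused to Sup35N were induced with 100 μM copper sulfate for 24 hours and grown 7 days at 30°C on medium lacking adenine and uracil, and input and output plasmid inserts were Illumina-sequenced, excluding sequences with under 100 input reads. The nucleation score is the DiMSum log enrichment of output over input reads, centred on the mode score of non-aggregating sequences.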

SLIYGILCKINQ: the amyloid nucleation score was -0.064 ± 0.44.
As for VSLCEMNRSFCWDAGASGRV, the figure is 0.621 ± 1; as for AILVHCSVLTVA, 0.584 ± 0.66.
On to DYSCARYEPGNMVLLC, for which the amyloid nucleation score is -0.813 ± 1.5.
Under SCSYLSKYTYRREMVYGNEV stands 0.002 ± 0.22; under NTSSFVSTNWSGFPWSGSRY, 2.02 ± 0.24.
Under LKQSYKKPY stands “inactive”; under DSTLTVKFLMMVRYMVCSVG, 1.71 ± 0.25; under RVTDLYFASGGQLMQRSVLL, 0.331 ± 0.6.
Under PYVFPVRYYSTILWYAIYVR stands 0.558 ± 0.28; under SMEGLMSLMHSRISRFVFRV, 0.168 ± 1.2.
Consider VFLVYLY, for which the amyloid nucleation score was -0.608 ± 0.28.
Under HHLAKCRTLKLYLLWLQRIL stands 0.471 ± 0.54.
As for LVTFPKLSEVIHGKADVMHS, the figure is -0.633 ± 0.88; as for VTKLNMILMVGTVYGSNIGV, 6.782 ± 0.05.
Under CPSIILPFVYRNGSVTMVPF stands 0.927 ± 0.2; under KCGRVWHVFFVVSYQGVGST, 1.31 ± 0.46; under IYWSP, 0.569 ± 0.26.
As for YDMIWSSMLGFIERQAYMLP, the amyloid nucleation score is -0.502 ± 0.32.
Substance VLESLAYFPGFNEWCGDMMS came in with an amyloid nucleation score of 1.43 ± 0.42.
In the case of TMDDYPLDLHCWAGS, the amyloid nucleation score is 0.767 ± 1.
As for NCDDIYKYMVIVQGSQLFI, the figure is -0.211 ± 0.32; as for YQTWRQWLLFACRVSECYDM, -0.508 ± 1.1; as for GHTRR, -0.062 ± 0.41.
Under EDCIMGNWNLCSKGSSGF stands 0.374 ± 0.3; under PQVGRAYNGGAGFLKYSTWD, 0.229 ± 0.51; under LSLRCCGFYLIVFFVIKFVS, -0.536 ± 0.29.
As for MVTCGYKDFK, the figure is -1.7 ± 1.5; as for TDEVDDIQF, 0.552 ± 0.59.
Substance FDIIK had an amyloid nucleation score of -0.358 ± 1.4.
The substance SWQSVSSAISV displayed an amyloid nucleation score of -0.234 ± 0.85.
Under YDPPTWIHNAMGG stands 0.342 ± 0.41; under NFKNRPSRLSRSNRSLFSTG, -0.887 ± 0.85.
Under CLNSHFGKNISNLFVCDLVC stands 0.484 ± 0.61.
Under DATVQTWGDVKSGLWWVCCP stands 5.62 ± 0.098.
The substance KSLFVLVWTLLLPT gave an amyloid nucleation score of -0.223 ± 0.35.
As to NDVFEHIITFCILRVYHMFC, the amyloid nucleation score was -0.577 ± 0.3.
Under PIKVMIFVCNGFRKWHLMQH stands 0.268 ± 1.1; under AVRGINCCKRQSWKCNLCM, 0.915 ± 0.56; under IMRSMSGWFGFVMLFDAS, -0.598 ± 0.79.
Under YKSIWTRLGSGRSRVGLSRL stands -0.38 ± 1; under IMSYLKTLSPVIAMRTIERP, 0.821 ± 0.5; under LNAESLMSRFVCGMFVVTKG, 0.112 ± 1.2.
For the substance MYTFN, the amyloid nucleation score is -0.031 ± 0.19.
EDMWKTCTAV returned an amyloid nucleation score of 0.244 ± 0.37.
As for SYMGSNSSYYCMRGWGRTWY, the figure is 2.14 ± 0.095; as for VLPFSLFAYAACFVLTLTYV, 0.274 ± 1.1; as for AERVCTFIL, -1.25 ± 1.1.
Under TIFVYSKTNL stands 2.64 ± 0.18.
As for LPPTLVLMIHNRRVCRCSLA, the figure is 1.05 ± 0.69; as for GYGQCSGSYAGSGGT, 0.715 ± 0.57.
Substance RLKYYNYERFRLVVLCRVHG displayed an amyloid nucleation score of -0.053 ± 1.1.
On to AKVPVKGQRLRTGLPKSTHT, for which the amyloid nucleation score is -1.88 ± 1.4.
As for CECHPFHPRVLVYGRYRFNP, the figure is 0.033 ± 0.38; as for CDVVVSSF, -0.117 ± 0.88.
As for TIFVPGALVDFAAGGTHQLI, the figure is -0.088 ± 1.3; as for SNMRRASFNHGGRWNSGRGN, -1.1 ± 2.4; as for LSSRHVAGYQEYLNDL, -0.88 ± 0.72.
Under VHSGNMMSNFGWAERLHKKA stands -0.39 ± 1.2; under ELSMCYYWRKSYIQSLGIRW, 0.733 ± 0.27.
With IIRFTTFPCFNVR, the amyloid nucleation score was determined as 2.1 ± 0.13.
As for DDSSDTEVRLGYALAGIKVG, the figure is -0.406 ± 0.34; as for YLDGVECTN, -0.366 ± 0.63.
As for SLRKKVSSVCSC, the figure is 0.838 ± 0.54; as for IKYVQIGRRRLKWGGERRPL, 0.311 ± 0.37.
As for LAAVQTDMFISTLLECLDDK, the figure is 1.08 ± 0.35.
Substance TFSQWWVRSCFGTRMNWCLV returned an amyloid nucleation score of 0.174 ± 1.2.
Under FPEWNSWYQRRVMAKGAHGY stands 0.58 ± 1.1; under KTGFYGFMVGM, 4.54 ± 0.063; under GSRNNWKTPWSDNHGTLWRC, -0.298 ± 0.47.
Under VFSKLDTLFTVSMTLRPMWP stands 0.566 ± 0.79.
As for SSYVPSCCYWAVWFCVRGKY, the figure is 1.58 ± 0.46; as for RLCRTVEWCGCYSIPNLQCA, 0.118 ± 0.46; as for MLRMQKIGLFSLGMSC, -0.838 ± 0.47.
WYPYTVSIPLIYVVSCIDEY yielded an amyloid nucleation score of 5.91 ± 0.07.
As for TLRYKNT, the figure is 0.371 ± 0.76; as for PRNPMRSESILFCGNFVGRK, -0.759 ± 0.59; as for GRGTRLYVRRQW, 0.39 ± 0.28.
Under RCGLAQSSVSSSVKGPRVTW stands -0.31 ± 0.6; under SWDVAYVSMF, 0.124 ± 0.6; under SCLYQGCYLNCVIDIMGCGL, 5.83 ± 0.089.
Substance SPRLAGMVSMVDKCRRASGR displayed an amyloid nucleation score of 0.097 ± 0.33.
Regarding GNYNSPFFRGSVNWNWCM, the amyloid nucleation score worked out at 0.485 ± 1.2.
As for ECDSAFRSQGGGLACLFRMK, the figure is -0.171 ± 0.42; as for YIRIMLGMMPNLRERSRTRV, “inactive”; as for GIRSLFGGKCWDHGSFMWKF, -0.195 ± 0.54.
Under QVWSPHSVSKFGPGPPVTEA stands -0.388 ± 1.4; under MRLLIGEKIMWSLRCCSDKG, -0.263 ± 0.29.
Under SLGFIFTEILYIFIVAWFII stands 0.198 ± 0.47.
GGYGERRDVVVDRSYTVDTG had an amyloid nucleation score of 0.071 ± 0.62.
As for FIYMQSVCAWFISWNSFR, the figure is 0.355 ± 0.86; as for WLGLGVRALRSENVCCRAFH, 1.1 ± 0.49; as for IVASSISAQVSLLYRALCIY, 3.69 ± 0.16.
Under VRLFMYMCIWMFMSDSSIWG stands -0.348 ± 0.64; under ERSARGGHPMLAFYMTIPTP, -0.067 ± 1.2.
In turn, KLLDSSVVDSLRQHCEAGLR returned an amyloid nucleation score of 0.075 ± 0.3.
Under ERLGMWDSRMVQLWDSFCIE stands 0.363 ± 0.48.
Regarding KMSAWQFGGHVLCNARMGYE, the amyloid nucleation score was -0.112 ± 0.36.
Consider RRARFFFRGYY, for which the amyloid nucleation score amounted to 6.12 ± 0.078.
Under RPKHTGTINYKHVHTNYVEG stands 1.36 ± 0.47; under TGCGERWGQSMVIGVSL, -0.102 ± 0.62.
As for YLQFVRQRVCWLRLRPMMKA, the figure is -0.183 ± 0.56.
Under STLDLLCYFRREADQTINKR stands 0.336 ± 0.36; under IELPRFYILVNFYGTLSLSL, 3.83 ± 0.12; under LHWFQLMANFI, -0.069 ± 0.28.
Consider MQGDRQDGLYNKGDYPQFIF, for which the amyloid nucleation score was -0.267 ± 0.39.
As for TCMTRTLYIL, the figure is -0.092 ± 0.37.
Under RDTNKSIQ stands 0.208 ± 0.56; under KLINCLGIVL, -0.92 ± 1.1.
As for IMLANVSLLVRNHGRY, the figure is 3.02 ± 0.16; as for IIRFWLTSVVIYMSFLCRGR, -1.2 ± 1.9; as for CLTGIGKLPVGSGPV, 0.198 ± 0.77.
For IILYVLANFIMWWREVFNPK, the amyloid nucleation score came to 0.218 ± 0.48.
As for DMNDYSK, the figure is -0.592 ± 0.39.
QYYFDLIDLGITVDVMS: the amyloid nucleation score was determined as 0.684 ± 0.84.
Under LPALKCELGAAMLSAQLMAR stands -0.18 ± 0.24.
As for SRAAFVSSKPYMSWGVTYVH, the figure is -0.792 ± 1.3; as for QFSCIPESTYSS, 0.047 ± 0.41; as for YYSGGFIMVVHLWSVELRFR, 0.23 ± 0.9.
As for RNTRTDSSTQTLLIVSHH, the figure is 0.011 ± 0.51.
MSWNYCNDM: the amyloid nucleation score was -0.045 ± 0.22.
As for VLMLCCMGSTRVCMTYMPDN, the figure is 6.885 ± 0.064; as for TLHTKSGLNIMARYPMAERG, 1.31 ± 0.8; as for ILSVVYVLVCVVQVLCKQWH, 0.163 ± 0.43.
As for LDWHKLRDWVKLGW, the figure is -0.255 ± 0.73.
Under RVGAPFNLVRSCSGATLCEV stands -0.023 ± 0.63; under FANLDSMNLIGKGFSMNYAL, -0.614 ± 0.97.
SYCTGLFWEKRVVIMLVSQV yielded an amyloid nucleation score of -0.103 ± 0.53.
TVLVT returned an amyloid nucleation score of -0.461 ± 0.48.
Under EIRLNYMGFGPKCT stands 0.735 ± 0.27; under WRLMRECTFSVS, 0.137 ± 0.29; under RNTVQYVFYPQDLWWSAGVQ, 5.429 ± 0.048.
As for NIGVMVLVLDARKDKRFGKI, the figure is 7.65 ± 0.082.
Under QHYMQVIDLGSWWSSWVYFI stands -0.005 ± 0.97.
Substance GVVSFNFDSLQF displayed an amyloid nucleation score of -0.471 ± 0.65.
As for HWLGYVVLDLFDWPYCMIDL, the figure is 1.38 ± 0.5; as for KGGSPQYNGVTSMWWDRKFD, -0.255 ± 0.38; as for SLVSPRCSKMMFWGLPGVMM, 0.088 ± 0.29.
On to NASCFADKPLLCSLTGRVMD, for which the amyloid nucleation score is -0.043 ± 0.49.
